# Laboratory results reported in IntAct's records for PubMed 21575865.
# B1: Transcriptional regulator ERG (Homo sapiens), P11308-1 (parent)
# chain: MIQTVPDPAAHIKEALSVVSEDQSLFECAYGTPHLAKTEMTASSSSDYGQTSKMSPRVPQQDWLSQPPARVTIKMECNPSQVNGSRNSPDECSVAKGGKMVGSPDTVGMNYGSYMEEKHMPPPNMTTNERRVIVPADPTLWSTDHVRQWLEWAVKEYGLPDVNILLFQNIDGKELCKMTKDDFQRLTPSYNADILLSHLHYLRETPLPHLTSDDVDKALQNSPRLMHARNTDLPYEPPRRSAWTGHGHPTPQSKAAQPSPSTVPKTEDQRPQLDPYQILGPTSSRLANPGSGQIQLWQFLLELLSDSSNSSCITWEGTNGEFKMTDPDEVARRWGERKSKPNMNYDKLSRALRYYYDKNIMTKVHGKRYAYKFDFHGIAQALQPHPPESSLYKYPSDLPYMGSYHAHPQKMNFVAPHPPALPVTSSSFFAAPNPYWNSPTGGIYPNTRLPTSHMPSHLGTYY
# Variants of: B1
# Conditions: with prkdc_human PRKDC
row,Variant,effect of a mutation on the interaction
1,Y356A,disrupting interaction
